Target: NT-proBNP (UniProt P16860)
Experiment: AuNP aggregation (LSPR, A750/A521), Hill fit; diluted urine; Hill n = 0.0751; NT-proBNP in 5 mM PBS pH 7.4; aptamer in 10 mM Tris-HCl, 0.2 mM EDTA (0.25 uM in assay); 15 min incubation; then citrate AuNPs and 40 uL 0.2 M NaCl; 25 C stated for CD sample only
Conditions: protein: commercial; antiparallel G4 proposed from CD

NT-proBNP, sequence (P16860 27-134): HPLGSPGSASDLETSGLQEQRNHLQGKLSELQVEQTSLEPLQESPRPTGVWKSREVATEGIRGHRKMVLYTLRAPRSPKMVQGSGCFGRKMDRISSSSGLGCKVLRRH

B1: NT-proBNP aptamer (structured_DNA)
DNA: GGCAGGAAGACAAACAGGTCGTAGTGAAACTGTCCACCGTAGACCGGTTATCTGTTGGTCTGTGGTGCTGT
For B1, the Kd was 2.71 nM.
